A word on the IC50: it is the concentration that inhibits the measured activity by half. The low end stands for higher potency, the high end for lower potency.

Starred links: 1 amine or outer side, 2 acyl side, 3 side chain; linkers in the order of their positions; H or OH if unused. Positions of bridges follow the written chain, without caps; N, C: chain ends. Non-standard residues stand in square brackets, D forms with d. Groups on a side chain read outwards from the residue. Primed or numbered codes have the meaning given here. *: point of attachment. PyrS2″ = (S)-3-amino-1-((pent-4-en-1-yloxy)carbonyl)pyrrolidine-3-carboxylic acid (stapling residue), C=CCCCOC(=O)N1CC[C@@](N[*:1])(C(=O)[*:2])C1; B5(4) = 2,2-bis(4-pentenyl)glycine = 2-amino-2-(pent-4-en-1-yl)hept-6-enoic acid (stitching residue), C=CCCCC(CCCC=C)(N[*:1])C(=O)[*:2]; B5(5) = 2,2-bis(4-pentenyl)glycine, 2-amino-2-(pent-4-en-1-yl)hept-6-enoic acid (stitching residue), C=CCCCC(CCCC=C)(N[*:1])C(=O)[*:2]; PyrS2 = (S)-3-amino-1-((pent-4-en-1-yloxy)carbonyl)pyrrolidine-3-carboxylic acid, C=CCCCOC(=O)N1CC[C@@](N[*:1])(C(=O)[*:2])C1; B5(27) = 2-amino-2-(pent-4-en-1-yl)hept-6-enoic acid (two alkene side-chain arms), C=CCCCC(CCCC=C)(N[*:1])C(=O)[*:2]; MePpzAsn = (S)-2-amino-4-(4-methylpiperazin-1-yl)-4-oxobutanoic acid, CN1CCN(C(=O)C[C@H](N[*:1])C(=O)[*:2])CC1; F2PipNva = (S)-2-amino-5-(4,4-difluoropiperidin-1-yl)pentanoic acid, O=C([C@H](CCCN1CCC(F)(F)CC1)N[*:1])[*:2]; F2PipAbu = (S)-2-amino-4-(4,4-difluoropiperidin-1-yl)butanoic acid, O=C([C@H](CCN1CCC(F)(F)CC1)N[*:1])[*:2]; MePpzNva = (S)-2-amino-5-(4-methylpiperazin-1-yl)pentanoic acid, CN1CCN(CCC[C@H](N[*:1])C(=O)[*:2])CC1; MePpzAbu = (S)-2-amino-4-(4-methylpiperazin-1-yl)butanoic acid, CN1CCN(CC[C@H](N[*:1])C(=O)[*:2])CC1; 4TriA = (S)-2-amino-3-(1H-1,2,3-triazol-4-yl)propanoic acid, O=C([C@H](Cc1c[nH]nn1)N[*:1])[*:2]; Lithocholoyl = C[C@H](CCC(=O)*)[C@H]1CC[C@H]2[C@@H]3CC[C@@H]4C[C@H](O)CC[C@]4(C)[C@H]3CC[C@]12C; MorphAsn = (S)-2-amino-4-morpholino-4-oxobutanoic acid, O=C(C[C@H](N[*:1])C(=O)[*:2])N1CCOCC1; B5(3) = 2,2-bis(4-pentenyl)glycine (stitching residue), C=CCCCC(CCCC=C)(N[*:1])C(=O)[*:2]; Me3AdamantC = 3,5,7-trimethyladamantane-1-carbonyl, CC12CC3(C)CC(C)(C1)CC(C(=O)*)(C2)C3; MorphAbu = (S)-2-amino-4-morpholinobutanoic acid, O=C([C@H](CCN1CCOCC1)N[*:1])[*:2]; Phe(4-(3-Py)) = N[C@@H](Cc1ccc(-c2cccnc2)cc1)C(=O)O; Nva(5-morpholino) = N[C@@H](CCCN1CCOCC1)C(=O)O; Bta = N[C@@H](Cc1csc2ccccc12)C(=O)O; αAllylPro = C=CC[C@@]1(C(=O)O)CCCN1; tBuAla = CC(C)(C)C[C@H](N)C(=O)O; 3Thi = N[C@@H](Cc1ccsc1)C(=O)O; hSer = N[C@@H](CCO)C(=O)O; PEG2′ = not defined here

The target of this experiment is full-length beta-Catenin (Uniprot ID P35222) (Homo sapiens (Human)) (UniProt P35222). The experiment in a line: fluorescence polarization competition; displacement of 5FAM-TCF4(10-53) from full-length beta-catenin.
As for Ac-[αAllylPro]DY[B5(5)]DDAAFL[PyrS2″][3Thi][Bta][hSer]-NH2 (staple 1-4, 4-11) [I-1512: Ac-PL3-Asp-Tyr-B5-Asp-Asp-Ala-Ala-Phe-Leu-PyrS2-3Thi-BztA-Hse-NH2], the half-maximal inhibitory concentration (IC50) amounted to 12 nM.

Ac-[αAllylPro]D[tBuAla][B5(27)]DDAAFL[PyrS2][3Thi][Bta]V-NH2 (staple 1-4, 4-11) [I-1495]: the concentration for half-maximal inhibition (IC50) was 24 nM. To Ac-[αAllylPro]D[tBuAla][B5(3)]DDAAF[Nva(5-morpholino)][PyrS2″][3Thi][Bta]Q-NH2 (staple 1-4, 4-11) [I-1485] belongs 7 nM; to Ac-[αAllylPro]DK([PEG2′-Lithocholoyl])[B5(4)]DDAAFL[PyrS2][3Thi][Bta]Q-NH2 (staple 1-4, 4-11) [I-1470], 57 nM. Take Ac-[αAllylPro]D[tBuAla][B5(5)]DDAK(Me3AdamantC)FL[PyrS2″][3Thi][Bta]Q-NH2 (staple 1-4, 4-11) [I-1475]: the IC50 was determined as 113 nM.

Consider Ac-[αAllylPro]DK(Me3AdamantC)[B5(4)]DDAAFL[PyrS2][3Thi][Bta]Q-NH2 (staple 1-4, 4-11) [I-1471], for which the IC50 worked out at 34 nM. To Ac-[αAllylPro]D[tBuAla][B5(3)]DD[F2PipNva]AFL[PyrS2″][3Thi][Bta]Q-NH2 (staple 1-4, 4-11) [I-1482] belongs 7 nM; to Ac-[αAllylPro]D[tBuAla][B5(4)]DDAK([PEG2′-Lithocholoyl])FL[PyrS2″][3Thi][Bta]Q-NH2 (staple 1-4, 4-11) [I-1474], 41 nM.

In turn, Ac-[αAllylPro]DT[B5(5)]DDAAFL[PyrS2″][3Thi][Bta]Q-NH2 (staple 1-4, 4-11) [I-1515: Ac-PL3-Asp-Thr-B5-Asp-Asp-Ala-Ala-Phe-Leu-PyrS2-3Thi-BztA-Gln-NH2] returned an IC50 of 24 nM. Compared with the last molecule, the IC50 is about 1.7-fold lower. To Ac-[αAllylPro]D[tBuAla][B5(5)]DDAAFL[PyrS2″][3Thi][Bta]QK(Lithocholoyl)-NH2 (staple 1-4, 4-11) [I-1477] belongs 148 nM; to Ac-[αAllylPro]DS[B5(5)]DDAAFL[PyrS2″][3Thi][Bta]Q-NH2 (staple 1-4, 4-11) [I-1513: Ac-PL3-Asp-Ser-B5-Asp-Asp-Ala-Ala-Phe-Leu-PyrS2-3Thi-BztA-Gln-NH2], 21 nM.

Take Ac-[αAllylPro]DY[B5(27)]DDAAFL[PyrS2][3Thi][Bta]Q-NH2 (staple 1-4, 4-11) [I-1511: Ac-PL3-Asp-Tyr-B5-Asp-Asp-Ala-Ala-Phe-Leu-PyrS2-3Thi-BztA-Gln-NH2]: the half-maximal inhibitory concentration (IC50) turned out to be 5 nM. Compared with the last molecule, the IC50 is about 4.2-fold lower.

Turning to Ac-[αAllylPro]D[tBuAla][B5(27)]DDA[MorphAsn]FL[PyrS2][3Thi][Bta]Q-NH2 (staple 1-4, 4-11) [I-1507: Ac-PL3-Asp-Npg-B5-Asp-Asp-Ala-MorphAsn-Phe-Leu-PyrS2-3Thi-BztA-Gln-NH2], the concentration for half-maximal inhibition (IC50) came to 30 nM. In the case of Ac-[αAllylPro]D[tBuAla][B5(3)]DD[Phe(4-(3-Py))]AFL[PyrS2″]F[Bta]Q-NH2 (staple 1-4, 4-11) [I-1489] it was 17 nM.

Ac-[αAllylPro]D[tBuAla][B5(5)]DDAK(Lithocholoyl)FL[PyrS2][3Thi][Bta]Q-NH2 (staple 1-4, 4-11) [I-1473] showed a concentration for half-maximal inhibition (IC50) of 224 nM. To Ac-[αAllylPro]D[tBuAla][B5(27)]DDA[F2PipAbu]FL[PyrS2][3Thi][Bta]Q-NH2 (staple 1-4, 4-11) [I-1505: Ac-PL3-Asp-Npg-B5-Asp-Asp-Ala-F2PipAbu-Phe-Leu-PyrS2-3Thi-BztA-Gln-NH2] belongs 39 nM; to Ac-[αAllylPro]D[tBuAla][B5(27)]DDA[Nva(5-morpholino)]FL[PyrS2][3Thi][Bta]Q-NH2 (staple 1-4, 4-11) [I-1501], 46 nM.

In turn, Ac-[αAllylPro]D[tBuAla][B5(3)]DDAAF[F2PipNva][PyrS2″][3Thi][Bta]Q-NH2 (staple 1-4, 4-11) [I-1486] returned an IC50 of 5 nM. To Ac-[αAllylPro]D[tBuAla][B5(27)]DDA[F2PipNva]FL[PyrS2][3Thi][Bta]Q-NH2 (staple 1-4, 4-11) [I-1502] belongs 34 nM; to Ac-[αAllylPro]D[tBuAla][B5(27)]DDAAFL[PyrS2][3Thi][Bta]T-NH2 (staple 1-4, 4-11) [I-1494], 5 nM. In the case of Ac-[αAllylPro]D[tBuAla][B5(3)]DDAAFL[PyrS2″][3Thi][Bta]N-NH2 (staple 1-4, 4-11) [I-1492] it was 5 nM; in that of Ac-[αAllylPro]D[tBuAla][B5(3)]DDAAFL[PyrS2″][3Thi][Bta]QK([PEG2′-Me3AdamantC])-NH2 (staple 1-4, 4-11) [I-1480], 37 nM; in that of Ac-[αAllylPro]D[tBuAla][B5(5)]DDAAFL[PyrS2″][3Thi][Bta]QK(Me3AdamantC)-NH2 (staple 1-4, 4-11) [I-1479], 173 nM.

Ac-[αAllylPro]D[tBuAla][B5(3)]DD[MePpzAsn]AFL[PyrS2″][3Thi][Bta]Q-NH2 (staple 1-4, 4-11) [I-1484]: the IC50 was 30 nM.

Ac-[αAllylPro]D[tBuAla][B5(4)]DDA[MePpzNva]FL[PyrS2][3Thi][Bta]Q-NH2 (staple 1-4, 4-11) [I-1503] displayed an IC50 of 38 nM. In the case of Ac-[αAllylPro]D[tBuAla][B5(4)]DDAAFL[PyrS2″][3Thi][Bta]QK([PEG2′-Lithocholoyl])-NH2 (staple 1-4, 4-11) [I-1478] it was 75 nM; in that of Ac-[αAllylPro]D[tBuAla][B5(27)]DDAAFL[PyrS2][3Thi][Bta]W-NH2 (staple 1-4, 4-11) [I-1497], 50 nM; in that of Ac-[αAllylPro]D[tBuAla][B5(27)]DDAAFL[PyrS2][3Thi][Bta][4TriA]-NH2 (staple 1-4, 4-11) [I-1498], 48 nM. To Ac-[αAllylPro]DF[B5(27)]DDAAFL[PyrS2][3Thi][Bta][hSer]-NH2 (staple 1-4, 4-11) [I-1510: Ac-PL3-Asp-Phe-B5-Asp-Asp-Ala-Ala-Phe-Leu-PyrS2-3Thi-BztA-Hse-NH2] belongs 10 nM; to Ac-[αAllylPro]D[tBuAla][B5(4)]DDAK([PEG2′-Me3AdamantC])FL[PyrS2″][3Thi][Bta]Q-NH2 (staple 1-4, 4-11) [I-1476], 16 nM. To Ac-[αAllylPro]DS[B5(4)]DDAAFL[PyrS2″][3Thi][Bta][hSer]-NH2 (staple 1-4, 4-11) [I-1514: Ac-PL3-Asp-Ser-B5-Asp-Asp-Ala-Ala-Phe-Leu-PyrS2-3Thi-BztA-Hse-NH2] belongs 27 nM. The molecule Ac-[αAllylPro]D[tBuAla][B5(3)]DDAAF[MePpzAsn][PyrS2″][3Thi][Bta]Q-NH2 (staple 1-4, 4-11) [I-1488] returned a half-inhibitory concentration (IC50) of 6 nM. Molecule Ac-[αAllylPro]D[tBuAla][B5(3)]DD[Nva(5-morpholino)]AFL[PyrS2″][3Thi][Bta]Q-NH2 (staple 1-4, 4-11) [I-1481] came in with a half-inhibitory concentration (IC50) of 7 nM. To Ac-[αAllylPro]D[tBuAla][B5(3)]DD[MorphAsn]AFL[PyrS2″][3Thi][Bta]Q-NH2 (staple 1-4, 4-11) [I-1483] belongs 22 nM; to Ac-[αAllylPro]DT[B5(5)]DDAAFL[PyrS2″][3Thi][Bta][hSer]-NH2 (staple 1-4, 4-11) [I-1516: Ac-PL3-Asp-Thr-B5-Asp-Asp-Ala-Ala-Phe-Leu-PyrS2-3Thi-BztA-Hse-NH2], 30 nM. Ac-[αAllylPro]D[tBuAla][B5(27)]DDA[MorphAbu]FL[PyrS2][3Thi][Bta]Q-NH2 (staple 1-4, 4-11) [I-1504] gave an IC50 of 46 nM.

Molecule Ac-[αAllylPro]D[tBuAla][B5(3)]DDAAF[MorphAsn][PyrS2″][3Thi][Bta]Q-NH2 (staple 1-4, 4-11) [I-1487] had an IC50 of 7 nM. In the case of Ac-[αAllylPro]D[tBuAla][B5(27)]DDAAFL[PyrS2][3Thi][Bta]F-NH2 (staple 1-4, 4-11) [I-1496] it was 51 nM; in that of Ac-[αAllylPro]D[tBuAla][B5(4)]DDA[MePpzAsn]FL[PyrS2][3Thi][Bta]Q-NH2 (staple 1-4, 4-11) [I-1508: Ac-PL3-Asp-Npg-B5-Asp-Asp-Ala-MePpzAsn-Phe-Leu-PyrS2-3Thi-BztA-Gln-NH2], 87 nM. In the case of Ac-[αAllylPro]D[tBuAla][B5(4)]DDA[MePpzAbu]FL[PyrS2][3Thi][Bta]Q-NH2 (staple 1-4, 4-11) [I-1506: Ac-PL3-Asp-Npg-B5-Asp-Asp-Ala-MePpzAbu-Phe-Leu-PyrS2-3Thi-BztA-Gln-NH2] it was 89 nM.

The values are drawn from US20240116985A1, “STAPLED PEPTIDES AND METHODS THEREOF” (priority 2020, published 2024).
